# Test results from patent publication US20260001934A1.
# Legend:
# [1] = biological target: α65P AChR.CD8H.BBz CAAR
# [2] = biological target: α39P AChR.CD8H.BBz CAAR
# [3] = biological target: α210.GS.BBz CAAR
# [4] = biological target: α208.GS.BBz
# [5] = biological target: α211.GS.BBz CAAR
# [6] = biological target: α210.GS.BBz CAAR; assay: flow cytometry, mAb 210 plus secondary IgG-APC on lentivirally transduced primary human T cells, day 5; the same gate on NTD cells reads 0.20
# [7] = biological target: α211.GS.BBz CAAR; assay: as above
# [8] = biological target: α39P AChR.CD8H.BBz CAAR; assay: flow cytometry, mAb 210 staining of lentivirally transduced primary human CD3+ T cells, day 5; the same gate on NTD cells reads 0.32
# [9] = biological target: α65P AChR.CD8H.BBz CAAR; assay: as above
# [10] = biological target: α208.GS.BBz; assay: flow cytometry, mAb 210 plus secondary IgG-APC on lentivirally transduced primary human T cells, day 5; the same gate on NTD cells reads 0.20; the filing says this CAAR is not surface-expressed, so the low value shows absent target and not lack of affinity
# [11] = biological target: α39P AChR.CD8H.BBz CAAR; assay: flow cytometry, mAb 210 staining of lentivirally transduced Jurkat cells, day 3; the same gate on NTD cells reads 0.43
# [12] = biological target: α65P AChR.CD8H.BBz CAAR; assay: as above
# [13] = biological target: α210.GS.BBz CAAR; assay: flow cytometry, mAb 210 plus anti-rat IgG-APC on transiently transfected 293T cells, day 2; non-transfected 293T reads 0%
# [14] = biological target: α211.GS.BBz CAAR; assay: as above
# [15] = biological target: α208.GS.BBz; assay: flow cytometry, mAb 210 plus anti-rat IgG-APC on transiently transfected 293T cells, day 2; non-transfected 293T reads 0%; the filing says this CAAR is not expressed on the cell surface, so the low value shows absent target and not lack of affinity
# [16] = biological target: α39P AChR.CD8H.BBz CAAR; remark: listed apart in the source
# [17] = biological target: α65P AChR.CD8H.BBz CAAR; remark: listed apart in the source
# [18] = biological target: α210.GS.BBz CAAR; remark: listed apart in the source
# [19] = biological target: α211.GS.BBz CAAR; remark: listed apart in the source
# Chain of α39P AChR.CD8H.BBz CAAR (chain, as listed by the source): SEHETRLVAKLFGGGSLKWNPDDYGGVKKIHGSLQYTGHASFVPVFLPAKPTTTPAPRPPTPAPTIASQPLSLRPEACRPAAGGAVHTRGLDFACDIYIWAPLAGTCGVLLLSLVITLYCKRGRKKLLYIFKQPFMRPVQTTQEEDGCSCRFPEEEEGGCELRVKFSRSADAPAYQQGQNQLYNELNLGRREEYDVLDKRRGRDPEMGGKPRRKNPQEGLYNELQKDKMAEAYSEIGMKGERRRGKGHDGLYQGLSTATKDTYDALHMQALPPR
substance,measurement,setting,value
mAb 35 surface anti-AChR B cell receptor on TIB-175 hybridoma cells (antibody),% GFP+ CAAR Jurkat NFAT-GFP cells after 12 h co-culture with TIB-175 (NTD Jurkat in the same figure: 0.81) (% (unit not given; gate frequency)),[1],69
same,% GFP+ CAAR Jurkat NFAT-GFP cells after 12 h co-culture with TIB-175 (NTD Jurkat in the same figure: 4.1) (% (unit not given; gate frequency)),[2],53.7
same,% GFP+ AChR CAAR Jurkat reporter cells (CD3+ gate) after 12 h co-culture with TIB-175,[3],53%
same,% GFP+ Jurkat reporter cells (CD3+ gate) after 12 h co-culture with TIB-175; the construct is a negative control that is not on the cell surface,[4],2.88%
same,% GFP+ AChR CAAR Jurkat reporter cells (CD3+ gate) after 12 h co-culture with TIB-175,[5],55.7%
anti-AChR alpha subunit monoclonal antibody 210,% of cells in the mAb 210-positive gate (% (unit not given; gate frequency)),[6],41.3
same,% of cells in the mAb 210-positive gate (% (unit not given; gate frequency)),[7],63.6
same,% of cells in the mAb 210-positive gate (% (unit not given; gate frequency)),[8],53.4
same,% of cells in the mAb 210-positive gate (% (unit not given; gate frequency)),[9],13.1
same,% of cells in the mAb 210-positive gate (% (unit not given; gate frequency)),[10],1.14
same,% of cells in the mAb 210-positive gate (% (unit not given; gate frequency)),[11],68.5
same,% of cells in the mAb 210-positive gate (% (unit not given; gate frequency)),[12],68.8
same,% AChR CAAR surface-positive 293T cells,[13],26.3%
same,% AChR CAAR surface-positive 293T cells,[14],17.1%
same,% AChR CAAR surface-positive 293T cells,[15],3.91%
mAb 195 anti-AChR B cell receptor expressed on Nalm6 cells (antibody),"% GFP+ among CD3+-gated α39P CAAR Jurkat NFAT-GFP cells after 12 h co-culture, lower histogram (Nalm6 control: 4.1) (% (unit not given; gate frequency))",[16],68.6
same,"% of all co-cultured cells in the CD3+ GFP+ quadrant, upper dot plot, upper right (Nalm6 control: 1.52) (% (unit not given; quadrant frequency))",[16],17.8
same,"% GFP+ among CD3+-gated α65P CAAR Jurkat NFAT-GFP cells after 12 h co-culture, lower histogram (% (unit not given; gate frequency))",[17],70.5
same,"% of all co-cultured cells in the CD3+ GFP+ quadrant, upper dot plot, upper right (% (unit not given; quadrant frequency))",[17],6.95
same,% GFP+ AChR CAAR Jurkat NFAT-GFP cells (CD3+ gate) after 12 h co-culture,[18],91.7%
same,% GFP+ AChR CAAR Jurkat NFAT-GFP cells (CD3+ gate) after 12 h co-culture,[19],94.6%
mAb 192 anti-AChR B cell receptor expressed on Nalm6 cells (antibody),"% GFP+ among CD3+-gated α39P CAAR Jurkat NFAT-GFP cells after 12 h co-culture, lower histogram (Nalm6 control: 4.1) (% (unit not given; gate frequency))",[16],6.23
same,"% of all co-cultured cells in the CD3+ GFP+ quadrant, upper dot plot, upper right (Nalm6 control: 1.52) (% (unit not given; quadrant frequency))",[16],5.44
same,"% GFP+ among CD3+-gated α65P CAAR Jurkat NFAT-GFP cells after 12 h co-culture, lower histogram (% (unit not given; gate frequency))",[17],41.4
same,"% of all co-cultured cells in the CD3+ GFP+ quadrant, upper dot plot, upper right (% (unit not given; quadrant frequency))",[17],5.96
same,% GFP+ AChR CAAR Jurkat NFAT-GFP cells (CD3+ gate) after 12 h co-culture,[18],89.5%
same,% GFP+ AChR CAAR Jurkat NFAT-GFP cells (CD3+ gate) after 12 h co-culture,[19],91.4%
